Assay results as given in PMC3297495, “A rice transient assay system identifies a novel domain in NRR required for interaction with NH1/OsNPR1 and inhibition of NH1-mediated transcriptional activation” (Plant Methods, 2012).

Assays:
Gal4:rTGA2.1 = Gal4:rTGA2.1 (rice (Oryza sativa L)); assay: cell-based or functional assay
Gal4:rLG2 = Gal4:rLG2 (rice (Oryza sativa L)); assay: cell-based or functional assay

- UAS-Luc reporter (Luc/Gus) in rice protoplasts: Gal4:rTGA2.1 with untagged NH1 (Ubi-NH1) against Gal4:rTGA2.1 alone (Gal4:rTGA2.1): ~2 fold
- UAS-Luc reporter (Luc/Gus) in rice protoplasts: Gal4:rLG2 with untagged NH1 (Ubi-NH1) against Gal4:rLG2 alone (Figure 1) (Gal4:rLG2): ~2 fold
- UAS-Luc reporter (Luc/Gus) in rice protoplasts: Gal4:rLG2 with untagged NH1 (Ubi-NH1) against Gal4:rLG2 alone (Figure 4A) (Gal4:rLG2): ~3 fold
B1: YN:NH1 (natural protein, rice (Oryza sativa L), UniProt Q9FDY4 1-582, looked up)
chain: MEPPTSHVTNAFSDSDSASVEEGGADADADVEALRRLSDNLAAAFRSPEDFAFLADARIAVPGGGGGGGDLLVHRCVLSARSPFLRGVFARRAAAAAGGGGEDGGERLELRELLGGGGEEVEVGYEALRLVLDYLYSGRVGDLPKAACLCVDEDCAHVGCHPAVAFMAQVLFAASTFQVAELTNLFQRRLLDVLDKVEVDNLLLILSVANLCNKSCMKLLERCLDMVVRSNLDMITLEKSLPPDVIKQIIDARLSLGLISPENKGFPNKHVRRIHRALDSDDVELVRMLLTEGQTNLDDAFALHYAVEHCDSKITTELLDLALADVNHRNPRGYTVLHIAARRREPKIIVSLLTKGARPADVTFDGRKAVQISKRLTKQGDYFGVTEEGKPSPKDRLCIEILEQAERRDPQLGEASVSLAMAGESLRGRLLYLENRVALARIMFPMEARVAMDIAQVDGTLEFNLGSGANPPPERQRTTVDLNESPFIMKEEHLARMTALSKTVELGKRFFPRCSNVLDKIMDDETDPVSLGRDTSAEKRKRFHDLQDVLQKAFHEDKEENDRSGLSSSSSSTSIGAIRPRR
